From the supplement of paper PMC9170038

System: MS2 coat protein
Assay: apparent KD of MS2 coat protein; designed switch direction (-1 OFF switch, 1 ON switch): -1; higher = weaker reporter binding
Summary of the method: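 The apparent KD reported per design is the median over clusters of curve fits to normalised cluster fluorescence. The RNA switches were transcribed on Illumina chips by stalled E. coli RNA polymerase. SNAP-549-labelled MS2 coat protein was titrated from 0.7 or 1.5 nM, doubling up to 3 µM, in Tris-HCl pH 7.5 buffer containing KCl, MgCl2, BSA, DTT, tRNA and Tween-20, with no input, 200 uM small-molecule ligand, or an oligonucleotide input.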

[1] = input ligand: microRNA oligo, concentration not stated
[2] = Eterna round: R95, input ligand: microRNA oligo, concentration not stated

Row | Sequence | apparent KD of MS2 coat protein (input ligand: FMN 200 uM) [nM] | apparent KD of MS2 coat protein (input ligand: none) [nM] | apparent KD of MS2 coat protein [1] [nM] | apparent KD of MS2 coat protein (Eterna round: R95, input ligand: FMN 200 uM) [nM] | apparent KD of MS2 coat protein [2] [nM] | apparent KD of MS2 coat protein (Eterna round: R95, input ligand: none) [nM]
1 | GCAGAAUGAGUUAGGAUAUGAUGAUUUUUCGGAUAUCAGAAGGAACUUGAGGAUCACCCAAGUUAAGAUAGGGU [JR_BMEx4_Sub066] (Eterna round: R97, puzzle: Brourd's mod of Exclusion 4) | 258 | 170 | – | – | – | –
2 | GCAGCAUAGAUAACAGUCUGAUACAUGAGGAUCACCCAUGUGCAGGAUAUGGUCUGGAUUACAGGCCAGAAGGGUACAAGCUGC [Eli exng3 - 015] (Eterna round: R96, puzzle: Exclusion NG 3) | 10.4 | 13.4 | 7.84 | – | – | –
3 | GCAGCAUAGAUGAAAAUCUGAUACAUGAGGAUCACCCAUGUUCAGGAUAUGGUCUGGAUUACAGGCCAGAAGGGAACAAGCUGC [Eli exng3 - 011] (Eterna round: R96, puzzle: Exclusion NG 3) | 14 | 12 | 10.3 | – | – | –
4 | GCAGCAUAGUCCAAAUAGGACAUACAUGAGGAUCACCCAUGUCAGGAUAUGGUCUGGAUUACAGGCCAGAAGGGACGUAGCUGC [Eli exng3 - 004] (Eterna round: R96, puzzle: Exclusion NG 3) | 25.9 | 23.6 | 20.9 | – | – | –
5 | GCAGCAUAGUUUACUAACUGUUACAUGAGGAUCACCCAUGUCUAGGAUAUGGUCUGGAUUACAGGCCAGAAGGAGGCAAGCUGC [Eli exng3 - 035] (Eterna round: R96, puzzle: Exclusion NG 3) | 11.8 | 19.8 | 16.8 | – | – | –
6 | GCAGCAUAGUUUACUAACUGUUACAUGAGGAUCACCCAUGUUUAGGAUAUGGUCUGGAUUACAGGCCAGAAGGAAACAAGCUGC [Eli exng3 - 033] (Eterna round: R96, puzzle: Exclusion NG 3) | 12.8 | 12.4 | 9.51 | – | – | –
7 | GCAGCUUAGUUAACAGACUGUUACAUGAGGAUCACCCAUGUACAGGAUAUGGUCUGGAUUACAGGCCAGAAGGGUACAAGCUGC [Eli exng3 - 018] (Eterna round: R96, puzzle: Exclusion NG 3) | 9.62 | 11.5 | 9.01 | – | – | –
8 | GCAGGAUAAGUGAGGAUAUACCUAUGGAUACAUAGGUAGAAGGCACAUGAGGAUCACCCAUGUUCCUAACCUGC [Fiskers BMX 4 - 68] (puzzle: Brourd's mod of Exclusion 4) | – | – | – | 70.9 | 12.8 | 15.1
9 | GCAGGUCGAGGAUAUACAUGAGGAUCACCCAUGUGGUCACGUGACGAUAGUCACGAAUGUAGAAGGUGACCUGC [E3/3-B2] (Eterna round: R97, puzzle: Exclusion 3) | 3.13 | 207 | – | – | – | –
10 | GCAGGUCGAGGAUAUACAUGAGGAUCACCCAUGUUGAUCAAGCGACUUCGGUCGCAAUGUAGAAGGCGACCUGC [E3/7-A6] (Eterna round: R97, puzzle: Exclusion 3) | 151 | 1210 | – | – | – | –
11 | GCAGGUUAAGUCAGGAUAUACCUAUGGAUACAUAGGUAGAAGGGACAUGAGGAUCACCCAUGUGCCUCACCUGC [Fiskers BMX 4 - 19] (puzzle: Brourd's mod of Exclusion 4) | – | – | – | – | 16.8 | –
12 | GCAGGUUAAGUCAGGAUAUACCUAUGGAUACAUAGGUAGAAGGGACAUGAGGAUCACCCAUGUGCCUCACCUGC [Mod of Eli - Jieux - Brourd's mod of Exclusion 4] (Eterna round: R97, puzzle: Brourd's mod of Exclusion 4) | 109 | 26.1 | – | – | – | –
13 | GCAUGAAAUGUGAGGAUAUACCUCUGGAUACAUAGGUAGAAGGCACAUGAGGAUCACCCAUGUCCUAAACAUGC [Fiskers BMX 4 - 27] (puzzle: Brourd's mod of Exclusion 4) | – | – | – | – | 32.2 | –
